Measurements: article PMC3498381, “Isolated Toll-like Receptor Transmembrane Domains Are Capable of Oligomerization” (PLoS ONE, 2012)
Substitutions are numbered along the chain they refer to. Names may count otherwise. “And” between values parts separate entries of the source, which are not always exact repeats. Equal values may be shown once.

Columns and labels:
[1] = target: synthetic TLR1 transmembrane domain peptide, coumarin-labelled (human); test: FRET or BRET; coumarin-TLR1 or -TLR6 peptide (donor) fixed at 20 nM, fluorescein-TLR2 peptide (acceptor) titrated 0-1500 nM; 1 mM C14-betaine micelles, 100 mM HEPES pH 7.4; excitation 415 nm; Hill equation
[2] = target: synthetic TLR6 transmembrane domain peptide, coumarin-labelled (human); test: as above
[3] = target: synthetic TLR2 transmembrane domain peptide, fluorescein-labelled (human); test: AUC; sedimentation equilibrium; labelled peptide in density matched C14-betaine micelles (10 mM), 100 mM HEPES pH 7.4; FITC-TLR2 read at 495 nm, coumarin-TLR6 at 400 nm; for the heterotypic run FITC-TLR2 with 2 equiv. of coumarin-TLR6; global fit
TMD5 D150A = test: homotypic ToxR assay; conditions: higher signal = more homotypic TMD association; parent: est. 1.0; read off a plot
TLR2 G593A = test: homotypic ToxR assay; conditions: higher signal = more homotypic TMD association; parent: est. 1.0; read off a plot
[4] = target: synthetic TLR6 transmembrane domain peptide, coumarin-labelled (human); test: AUC; sedimentation equilibrium; labelled peptide in density matched C14-betaine micelles (10 mM), 100 mM HEPES pH 7.4; FITC-TLR2 read at 495 nm, coumarin-TLR6 at 400 nm; for the heterotypic run FITC-TLR2 with 2 equiv. of coumarin-TLR6; global fit
[5] = target: T1, TLR2 transmembrane domain C609I (ToxR chimera), O60603; test: homotypic ToxR assay; conditions: chain shown with the change; higher signal = more homotypic TMD association; parent: est. 1.0; read off a plot
T1 chain: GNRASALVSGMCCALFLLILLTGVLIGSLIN

[6] = target: T2, TLR1 transmembrane domain (ToxR chimera); test: heterotypic ToxR assay; conditions: chain shown with the change; competitor TLR1* (nonfunctional ToxR* chimera); PolyLeu* = 1.0; lower signal = more ToxR inhibition = more interaction; parent: est. 0.47; read off a plot
T2 chain: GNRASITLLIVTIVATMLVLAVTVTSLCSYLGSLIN

[7] = target: T3, TLR10 transmembrane domain (ToxR chimera); test: heterotypic ToxR assay; conditions: chain shown with the change; competitor TLR10* (nonfunctional ToxR* chimera); PolyLeu* = 1.0; lower signal = more ToxR inhibition = more interaction; parent: est. 0.41; read off a plot
T3 chain: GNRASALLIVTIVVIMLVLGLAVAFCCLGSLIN

[8] = target: T4, TLR2 transmembrane domain (ToxR chimera); test: heterotypic ToxR assay; conditions: chain shown with the change; competitor TLR2* (nonfunctional ToxR* chimera); PolyLeu* = 1.0; lower signal = more ToxR inhibition = more interaction; parent: est. 0.42; read off a plot
T4 chain: T1 chain with I26C

[9] = target: T5, TLR4 transmembrane domain (ToxR chimera); test: heterotypic ToxR assay; conditions: chain shown with the change; competitor TLR4* (nonfunctional ToxR* chimera); PolyLeu* = 1.0; lower signal = more ToxR inhibition = more interaction; parent: est. 0.90; read off a plot
T5 chain: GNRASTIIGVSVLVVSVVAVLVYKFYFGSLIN

[10] = target: T6, TLR5 transmembrane domain (ToxR chimera); test: heterotypic ToxR assay; conditions: chain shown with the change; competitor TLR5* (nonfunctional ToxR* chimera); PolyLeu* = 1.0; lower signal = more ToxR inhibition = more interaction; parent: est. 0.53; read off a plot
T6 chain: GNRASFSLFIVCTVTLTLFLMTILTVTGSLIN

[11] = target: T7, TLR6 transmembrane domain (ToxR chimera); test: heterotypic ToxR assay; conditions: chain shown with the change; competitor TLR6* (nonfunctional ToxR* chimera); PolyLeu* = 1.0; lower signal = more ToxR inhibition = more interaction; parent: est. 0.24; read off a plot
T7 chain: T2 chain with V14G, S29I

Molecule: synthetic TLR2 transmembrane domain peptide, fluorescein-labelled
- Kd [1]: 231 nM
- Kd [2]: 286 nM
- stoichiometry N [3]: 2 and 4

Molecule: TMD5 from latent membrane protein 1 (ToxR* chimera) D150A
- response (normalized Miller units) (TMD5 D150A): 0.59

Molecule: TLR2 transmembrane domain (ToxR chimera) G593A
- response (normalized Miller units) (TLR2 G593A): 1.1

Molecule: synthetic TLR6 transmembrane domain peptide, coumarin-labelled
- stoichiometry N [4]: 2

Molecule: GNRASALVSGMCCALFLLILLTGVLIGSLIN [TLR2 transmembrane domain (ToxR chimera) C609I]
- response (normalized Miller units) [5]: 1.1
- response (normalized Miller units) [6]: 0.78
- response (normalized Miller units) [7]: 0.63
- response (normalized Miller units) [8]: 0.55
- response (normalized Miller units) [9]: 0.88
- response (normalized Miller units) [10]: 0.81
- response (normalized Miller units) [11]: 0.82
